According to paper PMC1713233 (2006):

Biological target: T1, Trypsin Soybean Inhibitor (TSI) (Glycine max, UniProt P01070)
T1 chain: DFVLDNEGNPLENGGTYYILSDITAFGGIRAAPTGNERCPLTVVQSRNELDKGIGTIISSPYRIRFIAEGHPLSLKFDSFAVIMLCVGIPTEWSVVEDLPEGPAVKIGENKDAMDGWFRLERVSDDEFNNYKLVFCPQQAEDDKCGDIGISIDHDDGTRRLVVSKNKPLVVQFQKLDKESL
Assay: enzyme inhibition assay (BAPNA substrate, Cheng-Prusoff)

Ki: 2.18 µM
B1: Implantation serine proteinase complex (ISP1-ISP2) (protein)
chain 1: KPVGIVGGQRTPPGKWPWQVSLRMYSYEVNSWVHICGGSIIHPQWILTAAHCIQSQDADPAVYRVQVGEVYLYKEQELLNISRIIIHPDYNDVSKRFDLALMQLTALLVTSTNVSPVSLPKDSSTFDSTDQCWLVGWGNLLQRVPLQPPYQLHEVKIPIQDNKSCKRAYRKKSSDEHKAVAIFDDMLCAGTSGRGPCFGDSGGPLVCWKSNKWIQVGVVSKGIDCSNNLPSIFSRVQSSLAWIHQHIQ
chain 2: not shown
